The record followed here is patent US20190359693A1.

Assay [1] concerns the target hemagglutinin (HA) of influenza B/Harbin/7/94 (Yamagata) (influenza B virus). Description: cell-based or functional assay.
For assay [2], the target named is hemagglutinin (HA) of influenza B/Lee/40 (Old) (influenza B virus) (UniProt P03460). Description: cell-based or functional assay.
Chain of hemagglutinin (HA) of influenza B/Lee/40 (Old) (influenza B virus) (P03460 16-584 limits assumed): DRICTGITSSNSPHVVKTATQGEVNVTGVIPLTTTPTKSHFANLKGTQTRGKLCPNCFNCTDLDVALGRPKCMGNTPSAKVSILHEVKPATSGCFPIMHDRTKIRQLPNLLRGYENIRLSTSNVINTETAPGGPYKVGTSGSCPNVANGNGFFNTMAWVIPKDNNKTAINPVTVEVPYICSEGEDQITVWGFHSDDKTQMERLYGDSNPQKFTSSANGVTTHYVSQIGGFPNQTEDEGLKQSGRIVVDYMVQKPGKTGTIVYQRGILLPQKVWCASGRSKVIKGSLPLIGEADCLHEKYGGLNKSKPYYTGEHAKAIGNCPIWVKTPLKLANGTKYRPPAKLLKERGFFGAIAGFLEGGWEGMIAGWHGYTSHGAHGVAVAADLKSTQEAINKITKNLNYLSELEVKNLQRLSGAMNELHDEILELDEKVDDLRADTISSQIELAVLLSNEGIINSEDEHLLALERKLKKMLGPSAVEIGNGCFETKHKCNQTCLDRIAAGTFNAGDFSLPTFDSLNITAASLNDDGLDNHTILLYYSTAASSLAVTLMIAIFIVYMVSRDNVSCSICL

B1: SD3007 (VHH)
VHH: EVQLLESGGGLVQPGGSLRLSCAASGFTLENKAIGWFRQAPGKEREGVSCISKSGSWTYYADSVKGRFTISRDNSKNTVYLQMNSLRAEDTAVYYCATTTAGGGLCWDGTTFSRLASSWGQGTQVTVSS
Regarding B1, the VNA IC50 in assay [1] and in assay [2] was above 1000 nM in each case.

B2: SD3088 (VHH)
VHH: EVQLLESGGGLVQPGGSLRLSCAASGFTLENKAIGWFRQAPGKEREGVLCISKSGSWTYYADSVKGRFTISRDNSKNTLYLQMNSLRAEDTAVYYCATTTAGGGLCWDGTTFSRLASSWGQGTLVTVSS
B2 registered a VNA IC50 in assay [2] of 127 nM.

B3: SD3010 (VHH)
VHH: EVQLLESGGGLVQPGGSLRLSCAASGFTLENKAIGWFRQAPGKEREGVLCISKSGSWTYYADSVKGRFTISRDNSKNTLYLQMNSLRAEDTAVYYCATTTAGGGLCWDGTTFSRLASSWGQGTQVTVSS
As to B3, the figures for the VNA IC50 in assay [1] and in assay [2] were 173 nM and 227 nM, respectively.

B4: SD3008 (VHH)
VHH: EVQLLESGGGLVQPGGSLRLSCAASGFTLENKAIGWFRQAPGKEREGVSCISKSGSWTYYADSVKGRFTISRDNSKNTVYLQMNSLRPEDTAVYYCATTTAGGGLCWDGTTFSRLASSWGQGTQVTVSS
Take B4: the VNA IC50 in assay [1] and in assay [2] was above 1000 nM each time.

B5: SD3009 (VHH)
VHH: EVQLLESGGGLVQPGGSLRLSCAASGFTLENKAMSWFRQAPGKEREGVLCISKSGSWTYYADSVKGRFTISRDNSKNTLYLQMNSLRAEDTAVYYCATTTAGGGLCWDGTTFSRLASSWGQGTQVTVSS
In the case of B5, the VNA IC50 in assay [1] was found to be 516 nM; in assay [2], 372 nM.

B6: SD3011 (VHH)
VHH: EVQLLESGGGLVQPGGSLRLSCAASGFTLENKAIGWFRQAPGKEREGVLCISKSGSWTYYADSVKGRFTISRDNSKNTVYLQMNSLRAEDTAVYYCATTTAGGGLCWDGTTFSRLASSWGQGTQVTVSS
Consider B6, for which the VNA IC50 in assay [1] was found to be 96 nM; in assay [2], 59 nM.

B7: SD3012 (VHH)
VHH: EVQLLESGGGLVQPGGSLRLSCAASGFTLENKAIGWFRQAPGKEREGVLCISKSGSWTYYADSVKGRFTISRDNSKNTVYLQMNSLRPEDTAVYYCATTTAGGGLCWDGTTFSRLASSWGQGTQVTVSS
As to B7, the figures for the VNA IC50 in assay [1] and in assay [2] were 78 nM and 60 nM, respectively.

B8: SD3001 (VHH)
VHH: EVQLVESGGGLVQPGGSLRLSCAASGFTFSTSWMSWLRQAPGKGLEWVSVINTDGGTYYADSVKGRFTISRDNSKNTLYLQMNSLRAEDTAVYYCAKDWGGPEPTRGQGTQVTVSS
As to B8, the VNA IC50 in assay [1] and in assay [2] was above 1000 nM each time.

B9: SD3002 (VHH)
VHH: EVQLVESGGGLVQPGGSLRLSCAASGFTFSTSWMYWLRQAPGKGLEWVSVINTDGGTYYADSVKGRFTISRDNSKNTLYLQMNSLRAEDTAVYYCAKDWGGPEPTRGQGTQVTVSS
On to B9, for which the VNA IC50 in assay [1] is 137 nM; in assay [2], above 1000 nM.

B10: SD3003 (VHH)
VHH: EVQLVESGGGLVQPGGSLRLSCAASGFTFSTSWMSWLRQAPGKGLEWVSVINTDGGTYYADSVKGRFTISRDNSKDTLYLQMNSLRAEDTAVYYCAKDWGGPEPTRGQGTQVTVSS
As for B10, the VNA IC50 in assay [1] and in assay [2] was above 1000 nM each time.

B11: SD3086 (VHH)
VHH: EVQLVESGGGLVQPGGSLRLSCAASGFTFSTSWMYWVRQAPGKGLEWVSVINTDGGTYYADSVKGRFTISRDNSKNTLYLQMNSLRAEDTAVYYCAKDWGGPEPTRGQGTLVTVSS
B11 came in with a VNA IC50 in assay [2] above 1000 nM.

B12: SD3004 (VHH)
VHH: EVQLVESGGGLVQPGGSLRLSCAASGFTFSTSWMYWLRQAPGKGLEWVSVINTDGGTYYADSVKGRFTISRDNSKDTLYLQMNSLRAEDTAVYYCAKDWGGPEPTRGQGTQVTVSS
As to B12, the VNA IC50 in assay [1] was 101 nM; in assay [2], above 1000 nM.

B13: SD3049 (VHH)
VHH: EVQLVESGGGLVQPGGSLRLSCAASGLSLDTYAMSWFRQAPGKEREGVSCISSGHGMTYYADSVKGRFTISRDNSKNTLYLQMNSLQPEDTARYYCATESRYYCSDNWPAPQRYIYWGQGTQVTVSS
Molecule B13 had a VNA IC50 in assay [1] above 1000 nM.

B14: SD3052 (VHH)
VHH: EVQLVESGGGLVQPGGSLRLSCAASGLSLDTYAMSWFRQAPGKEREGVSCISSGHGLTYYADSVKGRFTISRDNSKNTLYLQMNSLQPEDTARYYCATESRYYCSDNWPAPQRYIYWGQGTQVTVSS
B14 returned a VNA IC50 in assay [1] above 1000 nM.

B15: SD3076 (VHH)
VHH: EVQLVESGGGLVQPGGSLRLSCAASGLSLDTYAVGWFRQAPGKEREGVSCISSGHGLTYYADSVKGRFTISTDNSKNTLYLQMNSLRAEDTAVYYCATESRYYCSDNWPAPQRYIYWGQGTLVTVSS
Take B15: the VNA IC50 in assay [1] and in assay [2] was above 1000 nM throughout.

B16: SD3055 (VHH)
VHH: EVQLVESGGGLVQPGGSLRLSCAASGLSLDTYAMSWFRQAPGKEREGITCISSGHGLTYYADSVKGRFTISRDNSKNTLYLQMNSLQPEDTARYYCATESRYYCSDNWPAPQRYIYWGQGTQVTVSS
Turning to B16, the VNA IC50 in assay [1] is above 1000 nM.

B17: SD3056 (VHH)
VHH: EVQLVESGGGLVQPGGSLRLSCAASGLSLDTYAMSWFRQAPGKEREGITCISSGHGFTYYADSVKGRFTISRDNSKNTLYLQMNSLQPEDTARYYCATESRYYCSDNWPAPQRYIYWGQGTQVTVSS
In turn, B17 registered a VNA IC50 in assay [1] above 1000 nM.

B18: SD3053 (VHH)
VHH: EVQLVESGGGLVQPGGSLRLSCAASGLSLDTYAMSWFRQAPGKEREGVSCISSGHGFTYYADSVKGRFTISRDNSKNTLYLQMNSLQPEDTARYYCATESRYYCSDNWPAPQRYIYWGQGTQVTVSS
Turning to B18, the VNA IC50 in assay [1] is above 1000 nM.

B19: SD3072 (VHH)
VHH: EVQLVESGGGLVQPGGSLRLSCAASGLSLDTYAVGWFRQAPGKEREGITCISSGHGMTYYADSVKGRFTVSTDNSKNTLYLQMNSLRAEDTAVYYCATESRYYCSDNWPAPQRYIYWGQGTLVTVSS
As for B19, the VNA IC50 was above 1000 nM in assay [1] and 318 nM in assay [2].

B20: SD3050 (VHH)
VHH: EVQLVESGGGLVQPGGSLRLSCAASGLSLDTYAMSWFRQAPGKEREGITCISSGHGMTYYADSVKGRFTISRDNSKNTLYLQMNSLQPEDTARYYCATESRYYCSDNWPAPQRYIYWGQGTQVTVSS
B20 gave a VNA IC50 in assay [1] above 1000 nM.

B21: SD3051 (VHH)
VHH: EVQLVESGGGLVQPGGSLRLSCAASGLSLDTYAMSWFRQAPGKEREGVSCISSGHGITYYADSVKGRFTISRDNSKNTLYLQMNSLQPEDTARYYCATESRYYCSDNWPAPQRYIYWGQGTQVTVSS
Take B21: the VNA IC50 in assay [1] was above 1000 nM.

B22: SD3074 (VHH)
VHH: EVQLVESGGGLVQPGGSLRLSCAISGLSLDTYAVGWFRQAPGKEREGITCISSGHGMTYYADSVKGRFTISTDNSKNTLYLQMNSLRAEDTAVYYCATESRYYCSDNWPAPQRYIYWGQGTLVTVSS
In the case of B22, the VNA IC50 is above 1000 nM in assay [1] and 42 nM in assay [2].

B23: SD3100 (VHH)
VHH: EVQLVESGGGLVQPGGSLRLSCAISGLSLDTYAVGWFRQAPGKEREGVSCISSGHGATYYADSVKGRFTISTDNSKNTLYLQMNSLRAEDTAVYYCATESRYYCSDNWPAPQRYIYWGQGTLVTVSS
Regarding B23, the VNA IC50 in assay [1] and in assay [2] was above 1000 nM in each case.

B24: SD3073 (VHH)
VHH: EVQLVESGGGLVQPGGSLRLSCAISGLSLDTYAVGWFRQAPGKEREGVSCISSGHGMTYYADSVKGRFTVSTDNSKNTLYLQMNSLRAEDTAVYYCATESRYYCSDNWPAPQRYIYWGQGTLVTVSS
On to B24, for which the results for the VNA IC50 in assay [1] and in assay [2] were above 1000 nM and 59 nM, respectively.

B25: SD3054 (VHH)
VHH: EVQLVESGGGLVQPGGSLRLSCAASGLSLDTYAMSWFRQAPGKEREGITCISSGHGITYYADSVKGRFTISRDNSKNTLYLQMNSLQPEDTARYYCATESRYYCSDNWPAPQRYIYWGQGTQVTVSS
Regarding B25, the VNA IC50 in assay [1] was above 1000 nM.

B26: SD3075 (VHH)
VHH: EVQLVESGGGLVQPGGSLRLSCAASGLSLDTYAVGWFRQAPGKEREGVSCISSGHGITYYADSVKGRFTISTDNSKNTLYLQMNSLRAEDTAVYYCATESRYYCSDNWPAPQRYIYWGQGTLVTVSS
Consider B26, for which the VNA IC50 in assay [1] and in assay [2] was above 1000 nM in each case.

B27: SD3069 (VHH)
VHH: EVQLVESGGGLVQPGGSLRLSCAISGLSLDTYAVGWFRQAPGKEREGITCISSGHGMTYYADSVKGRFTVSTDNSKNTLYLQMNSLRAEDTAVYYCATESRYYCSDNWPAPQRYIYWGQGTLVTVSS
Turning to B27, the VNA IC50 was above 1000 nM in assay [1] and 67 nM in assay [2].

B28: SD3070 (VHH)
VHH: EVQLVESGGGLVQPGGSLRLSCAISGLSLDTYAVGWFRQAPGKEREGITCISSGHGITYYADSVKGRFTVSTDNSKNTLYLQMNSLRAEDTAVYYCATESRYYCSDNWPAPQRYIYWGQGTLVTVSS
B28: the VNA IC50 in assay [1] and in assay [2] was above 1000 nM in each case.

B29: SD3071 (VHH)
VHH: EVQLVESGGGLVQPGGSLRLSCAISGLSLDTYAVGWFRQAPGKEREGITCISSGHGLTYYADSVKGRFTVSTDNSKNTLYLQMNSLRAEDTAVYYCATESRYYCSDNWPAPQRYIYWGQGTLVTVSS
For the molecule B29, the VNA IC50 in assay [1] and in assay [2] was above 1000 nM in each case.
